# Laboratory results reported in patent publication US20260327314 (published 2026).
# Changes are numbered by the printed parent chain.
# T1: Human CD16B (human)
# T1 chain: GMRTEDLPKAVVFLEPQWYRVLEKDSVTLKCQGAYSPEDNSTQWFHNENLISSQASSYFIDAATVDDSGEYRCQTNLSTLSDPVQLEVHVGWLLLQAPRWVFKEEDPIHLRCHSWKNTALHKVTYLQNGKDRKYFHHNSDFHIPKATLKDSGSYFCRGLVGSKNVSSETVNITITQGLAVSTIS
# B1: CD16-VH-RM72 (antibody)
# chain: EVQLVESGGGLVQPGGSLRLSCAASGFTFSNYGMSWVRQAPGKGLEWIGSIYYSGQTNYNPSLKSLVTISRDNSKNTLYLQMNSLRAEDTATYYCARESIDYWGQGTLVTVSS
# B2: BM156-01 (antibody)
# chain: B1 chain with Q56S
# B3: CD16-VH-RM76 (antibody)
# chain: B1 chain with Q56E
# B4: CD16-VH-RM75 (antibody)
# chain: B1 chain with Q56D
# B5: CD16-VH-RM77 (antibody)
# chain: B1 chain with S54N, Q56S
# B6: CD16-VH-RM81 (antibody)
# chain: B1 chain with S54T, Q56S
# B7: CD16-VH-RM73 (antibody)
# chain: B1 chain with Q56T
# B8: CD16-VH-RM80 (antibody)
# chain: B1 chain with S54D, Q56S
# B9: CD16-VH-RM82 (antibody)
# chain: B1 chain with G55V, Q56S
# B10: BM130-92 (Margetuximab) (antibody)
# chain 1: QVQLQQSGPELVKPGASLKLSCTASGFNIKDTYIHWVKQRPEQGLEWIGRIYPTNGYTRYDPKFQDKATITADTSSNTAYLQVSRLTSEDTAVYYCSRWGGDGFYAMDYWGQGASVTVSSASTKGPSVFPLAPSSKSTSGGTAALGCLVKDYFPEPVTVSWNSGALTSGVHTFPAVLQSSGLYSLSSVVTVPSSSLGTQTYICNVNHKPSNTKVDKRVEPKSCDKTHTCPPCPAPELVGGPSVFLLPPKPKDTLMISRTPEVTCVVVDVSHEDPEVKFNWYVDGVEVHNAKTKPPEEQYNSTLRVVSVLTVLHQDWLNGKEYKCKVSNKALPAPIEKTISKAKGQPREPQVYTLPPSRDELTKNQVSLTCLVKGFYPSDIAVEWESNGQPENNYKTTPLVLDSDGSFFLYSKLTVDKSRWQQGNVFSCSVMHEALHNHYTQKSLSLSPGK
# chain 2: DIVMTQSHKFMSTSVGDRVSITCKASQDVNTAVAWYQQKPGHSPKLLIYSASFRYTGVPDRFTGSRSGTDFTFTISSVQAEDLAVYYCQQHYTTPPTFGGGTKVEIKRTVAAPSVFIFPPSDEQLKSGTASVVCLLNNFYPREAKVQWKVDNALQSGNSQESVTEQDSKDSTYSLSSTLTLSKADYEKHKVYACEVTHQGLSSPVTKSFNRGEC
# Biological target: Human CD16A 158V (human)
# Assay: BLI
row,Kd,Binder
1,4.38 nM,B1
2,20.6 nM,B2
3,16.2 nM,B3
4,3.51 nM,B4
5,5.31 nM,B5
6,2.69 nM,B6
7,8.2 nM,B7

# Biological target: Human CD16A 158F (human)
# Assay: BLI
row,Kd,Binder
1,4.58 nM,B1
2,5.15 nM,B2
3,6.06 nM,B3
4,3.99 nM,B8
5,2.62 nM,B4
6,1.24 nM,B5
7,2.45 nM,B6
8,2.41 nM,B7
9,5.26 nM,B9

# Biological target: Human CD16A 158V (human)
# Assay: ELISA
row,EC50,Binder
1,45.1 nM,B10

# Biological target: Human CD16A 158F (human)
# Assay: ELISA
# Target sequence in this assay (chain, as listed by the source): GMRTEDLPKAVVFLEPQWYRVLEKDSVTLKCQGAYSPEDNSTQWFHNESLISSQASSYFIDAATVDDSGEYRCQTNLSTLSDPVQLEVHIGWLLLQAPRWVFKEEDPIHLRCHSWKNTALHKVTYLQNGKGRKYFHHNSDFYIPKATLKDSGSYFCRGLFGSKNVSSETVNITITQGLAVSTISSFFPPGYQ
row,EC50,Binder
1,1.89 nM,B1
2,7.66 nM,B2
3,2.2 nM,B3
4,3.03 nM,B8
5,3.04 nM,B4
6,1.21 nM,B5
7,1.25 nM,B6
8,3.29 nM,B7
9,3.29 nM,B9

# Biological target: Human CD16A 158V (human)
# Assay: ELISA
# Remark: another data set of the same source
# Target sequence in this assay (chain, as listed by the source): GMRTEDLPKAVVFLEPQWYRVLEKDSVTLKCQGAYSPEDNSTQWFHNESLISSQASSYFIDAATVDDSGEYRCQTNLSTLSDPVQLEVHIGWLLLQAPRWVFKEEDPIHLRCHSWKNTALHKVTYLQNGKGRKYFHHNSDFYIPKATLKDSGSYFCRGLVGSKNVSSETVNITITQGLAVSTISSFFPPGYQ
row,EC50,Binder
1,1.86 nM,B1
2,4.57 nM,B2
3,2.71 nM,B3
4,3.32 nM,B8
5,2.06 nM,B4
6,1.42 nM,B5
7,1.8 nM,B6
8,4.2 nM,B7
9,3.2 nM,B9

# Biological target: T1, Human CD16B
# Assay: ELISA
row,binding result,Binder
1,no binding,B10
